Source: patent US20180214548A1 (SHANGHAI YUNYI HEALTHCARE AND TECHNOLOGY, published 2018)

T1: B7-1 (human, UniProt P33681 35-242)
T1 sequence (looked up): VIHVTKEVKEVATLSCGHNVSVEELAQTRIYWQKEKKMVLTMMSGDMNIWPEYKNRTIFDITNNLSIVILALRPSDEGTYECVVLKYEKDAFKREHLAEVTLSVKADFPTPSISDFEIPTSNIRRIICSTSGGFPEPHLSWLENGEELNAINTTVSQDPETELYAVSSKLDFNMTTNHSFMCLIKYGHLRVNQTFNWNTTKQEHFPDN

T2: ICOS (human, UniProt Q9Y6W8 21-140, limits assumed)
T2 sequence (looked up): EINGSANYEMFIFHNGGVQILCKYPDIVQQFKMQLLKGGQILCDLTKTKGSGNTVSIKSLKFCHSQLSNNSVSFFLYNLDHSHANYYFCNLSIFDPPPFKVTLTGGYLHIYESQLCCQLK

T3: CTLA4 (human, UniProt P16410 37-162, limits assumed)
T3 sequence (looked up): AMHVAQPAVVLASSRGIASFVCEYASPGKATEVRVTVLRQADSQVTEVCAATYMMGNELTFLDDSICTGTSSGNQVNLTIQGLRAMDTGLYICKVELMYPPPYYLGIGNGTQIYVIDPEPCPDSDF


How the values were obtained:
[1] = target: T4, full length human PD-1 on cells (human, UniProt Q15116 25-288); experiment: flow cytometry, CHO-K1-hPD-1 cells; antibody 100 nM
T4 construct: Also used here for PD-1 on human T cells/PBMC; also called CHO-K1-hPD-1; hPD-1
Excerpt: (§1) CHO-K1 cells were stably transfected with pIRES plasmid containing the nucleic acid sequence encoding full length human PD-1 (see Example 2, step 2) to generate CHO-K1 cells stably expressing human PD-1 (herein referred to as CHO-K1-hPD-1 cells). Other CHO-K1 were stably transfected with pIRES plasmid containing the nucleic acid sequence encoding full length cyno PD-1 to generate CHO-K1 cells stably expressing cyno PD-1 (herein referred to as CHO-K1-cPD-1 cells). CHO-K1-hPD-1 and CHO-K1-cPD-1 cells were cultured and expanded in T-75 culture flasks to 90% confluence. The culture media was aspirated, and the cells were washed twice with HBSS (Hanks Balanced Salt Solution, Invitrogen). The cells were treated with enzyme-free cell dissociation solution (Versene solution, Invitrogen) and collected. The cells were then washed twice with HBSS, cell counts were determined, and cells were resuspended with HBSS at 2×10⁶ cells/mL. Goat serum was added to the cell suspension to a final concentration of 1%, and the cells were blocked for 30 minutes on ice and then washed twice with HBSS. The cells were collected after centrifugation and resuspended in FACS buffer (HBSS+1% BSA, v/v) at 2×10⁶ cells/mL. 100 uL of the cell suspension were then added to each well of 96-well plate. 100 uL of purified anti-PD-1 antibodies from Example 2 were added to each well of the 96-well plate and incubated for 2 hours on ice. […] The samples were washed three times with FACS buffer, and 100 uL fixation buffer (4% paraformaldehyde v/v) were added to each well and incubated for 10 minutes. The cells were then washed twice with FACS buffer and resuspended in 100 uL FACS buffer. The mean fluorescence intensity (MFI) was determined using FACS Calibur (BD), and the results are shown in FIGS. 7-8 and in Tables 10-11.

[2] = target: T1, B7-1; experiment: ELISA, coated protein 1 ug/mL; antibody concentration not stated
Method: (§2) 100 uL of the diluted recombinant proteins were added to each well of 96-well plate. The plates were sealed with plastic film and incubated at 4° C. overnight. The plates were washed twice with wash buffer (PBS+0.01% (v/v) Tween20), and incubated with blocking buffer (PBS+0.01% (v/v) Tween20+1% (w/w) BSA) at room temperature for 2 hours. The blocking buffer was aspirated away, and 100 uL of purified anti-PD-1 antibodies were added to each well and incubated for 2 hours at 37° C. The plates were washed three times with wash buffer (PBS+0.01% (v/v) Tween20). HRP-conjugated secondary antibody (Sigma) was added to each well and incubated for 2 hours at 37° C. After the plates were washed three times with wash buffer, 100 uL TMB substrate was added to each well and incubated for 30 minutes at room temperature. 100 uL stop solution (0.1N HCl) was added to each well to stop the reaction. The absorbance at 450 nm was measured with an ELISA plate reader (384plus SpectraMax, Molecular Devices).

[3] = target: T5, CD28 (human, UniProt P10747 19-152); experiment: as above
Method: as §2

[4] = target: T2, ICOS; experiment: as above
Method: as §2

[5] = target: T6, human PD-1^ECD-hFc protein (Immunogen A) (human, UniProt Q15116 25-167); experiment: as above
T6 construct: Biotinylated for the Octet assay; also called PD-1-hFc; hPD-1^ECD-hFc; not shown: human IgG Fc fragment (hFc)
Method: as §2

[6] = target: T3, CTLA4; experiment: as above
Method: as §2

[7] = target: T7, cyno PD-1^ECD-hFc protein (cyno monkey, UniProt B0LAJ3 25-167); experiment: ELISA, coated cyno PD-1ECD-hFc; antibody 100 nM
T7 construct: Prepared by the method for Immunogen A; also called Cyno Monkey PD-1^ECD-hFc; cyno monkey PD-1-hFc; not shown: human IgG Fc fragment (hFc) and its junction to the ECD
Method: as §2

[8] = target: T4, full length human PD-1 on cells; experiment: cell-based receptor-ligand blocking, flow cytometry: CHO-K1-hPD-1 cells, blocked ligand biotinylated PD-L1-Fc, streptavidin-Alexa 488
Method: CHO-K1-hPD-1 cells were cultured and expanded in T-75 culture flasks to 60-80% confluence. The culture media was aspirated, and the cells were washed twice with PBS. The cells were treated with TrypLE™ Express (Invitrogen) and collected. Trypsin was neutralized by the addition of 8 mL culture medium, and cell counts were determined. […] The cells were blocked for 15 minutes at 37° C. Meanwhile, the wells of 96-well round-bottom plates were blocked with 200 uL blocking buffer for 1 hour at 37° C. The blocking buffer was discarded, and 200 uL cells were dispensed to each well of the 96-well plates (2×10^5 cells/well). The plates were centrifuged at 500 g for 5 minutes, and the supernatants were discarded. The cells were resuspended in 100 uL antibody prepared in blocking buffer. […] The plates were incubated at 4° C. for 90 minutes and washed twice with 200 uL blocking buffer. […] The plates were washed three times with blocking buffer and resuspended in 200 uL blocking buffer. The mean fluorescence intensity (MFI) was determined using FACS Calibur (BD).

[9] = target: T4, full length human PD-1 on cells; experiment: flow cytometry, CHO-K1-hPD-1 cells; antibody 10 nM
Excerpt: as §1

[10] = target: T5, CD28; experiment: ELISA on coated protein (Table 9)
Method: as §2

T6 sequence (Q15116 25-167): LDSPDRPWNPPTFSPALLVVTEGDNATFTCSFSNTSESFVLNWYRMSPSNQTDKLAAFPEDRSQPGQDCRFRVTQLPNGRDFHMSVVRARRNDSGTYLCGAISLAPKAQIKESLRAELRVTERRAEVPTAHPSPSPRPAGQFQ
T7 sequence (B0LAJ3 entry or part of it limits assumed): as the sequence (Q15116 25-167) above, with D2E, P10A, V19L, T35A, Q75R counted along it
T4 sequence (Q15116 25-288 limits assumed): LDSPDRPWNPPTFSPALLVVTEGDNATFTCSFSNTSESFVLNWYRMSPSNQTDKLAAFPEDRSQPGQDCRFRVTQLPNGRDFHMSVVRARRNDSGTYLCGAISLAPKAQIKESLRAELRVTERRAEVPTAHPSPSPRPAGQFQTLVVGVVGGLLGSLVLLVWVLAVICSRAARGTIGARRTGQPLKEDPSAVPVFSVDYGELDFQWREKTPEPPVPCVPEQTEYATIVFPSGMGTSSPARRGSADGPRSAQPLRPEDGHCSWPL
T5 sequence (P10747 19-152 limits assumed): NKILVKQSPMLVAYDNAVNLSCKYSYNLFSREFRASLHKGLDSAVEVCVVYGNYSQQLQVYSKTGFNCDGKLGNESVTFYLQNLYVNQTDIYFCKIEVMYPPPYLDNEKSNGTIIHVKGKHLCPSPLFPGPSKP

Row | Mean fluorescence intensity [1] | OD450 nm [2] | OD450 nm [3] | OD450 nm [4] | OD450 nm [5] | OD450 nm [6] | OD450 nm [7] | IC50 (read off the curve) [8] | Mean fluorescence intensity [9] | binding result [10] | Binder
1 | 443 | 0.271 | 0.061 | 0.173 | 2.76 | 0.135 | 1.89 | ~0.8 nM | 435 | no binding | chimeric anti-PD-1 antibody 76G5B3 (antibody, V domains shown, Purified from hybridoma of Harbour H2L2 mice: human variable regions, rat constant regions) VH: QVQLVESGGGVVQPGRSLRLSCAASGFTFSDYGFHWVRQAPGKGLEWVAVIWYDGSNEYYTDSVKGRFTISRDNSKNTLYLQMNSLRAEDTAMYFCVVNPFDYWGQGTLVTVSS VL: DIQMTQSPSSLSAFVGDRVTITCRASQGINHYLAWYQQKPGKAPNLLILAASTLLSGVPSRFGGRGSGTDFTLIISSLQPEDVATYYCQKYDSAPYTFGQGTKLEIK
2 | 661 | 0.154 | 0.144 | 0.128 | 2.25 | 0.091 | 2.61 | ~6 nM | 696 | no binding | chimeric anti-PD-1 antibody 21G8F11 (antibody, V domains shown, Purified from hybridoma of Harbour H2L2 mice: human variable regions, rat constant regions) VH: EVQLLESGGGLAQPGGSLRLSCAASGFSFNTYLMHWVRQAPGKGLEWVSAISGGGGNTYYADSVKGRFTISRDNSKNTLYLQMNSLRAEDTAVYYCAKENRIPVAPFDYWGQGTLVTVSS VL: DIQMTQSPSTLSASVGDRVTITCRASQSISTWLAWYQQKPGKAPKLLIYKASSLESGVPSRFSGSGSGTEFTLTISSLQPDDLATYYCQQYNSFSWTFGQGTKVEIK
3 | 253 | 0.36 | 0.062 | 0.483 | 2.69 | 0.172 | 1.66 | ~6 nM | 156 | no binding | chimeric anti-PD-1 antibody 32B5C7 (antibody, V domains shown, Purified from hybridoma of Harbour H2L2 mice: human variable regions, rat constant regions) VH: EVQLLESGGGLVQPGGSLRLSCAASGFTFSSYAMSWVRQAPGKGLEWVSTISGSGGTTYYADSVKGRFTISRDNSKNTLYLQMNSLRAEDTAVYYCTLTGDPDYWGQGTLVTVSS VL: EIVLTQSPATLSLSPGERATLSCRASQSVSSYLAWYQQKPGQAPRLLIYDASKRATGIPARFSGSGSGTDFTLTISSLEPEDFAVYYCQQRNNWPLTFGGGTKVEIK
